Results reported in patent publication US9012420B2, “Aptamer for chymase, and use thereof” (Ribomic Inc., priority 2009, dated 2015).

Columns and labels:
chymase [1] = molecular target: T1, chymase (Homo sapiens, UniProt P23946 P23946:22-247); test: inhibition; Suc-AAPF-MCA, 37 C, solution C; details: tags: recombinant, expressed in yeast, SIGMA
T1 sequence: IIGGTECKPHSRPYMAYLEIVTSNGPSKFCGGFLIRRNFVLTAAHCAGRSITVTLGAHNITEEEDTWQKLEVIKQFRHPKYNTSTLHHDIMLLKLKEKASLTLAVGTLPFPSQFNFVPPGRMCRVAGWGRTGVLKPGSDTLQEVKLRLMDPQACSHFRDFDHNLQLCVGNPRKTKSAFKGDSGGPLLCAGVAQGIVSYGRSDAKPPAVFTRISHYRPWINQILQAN
In short: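 Nucleic acids, serially diluted to 0.0027-2 μM before mixing, were preincubated with substrate in solution C for 5 min at 37 °C. Recombinant chymase started the reaction (final 16.7 nM or 1.67 nM; substrate 100 μM). AMC fluorescence (ex 380/em 460 nm) was followed for 5 (or 30) min; initial slope versus uninhibited velocity gave inhibition.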

chymase [2] = molecular target: T1, chymase; test: inhibition; angiotensin I; recombinant 0.201; details: tags: human skin mast cell, Calbiochem
Description: (§1) The total volume of solution for an enzyme reaction in the assay was set to 50 μL, and the reaction was performed in solution C buffer. First, 0.3-0.75 ng of chymase (recombinant, (manufactured by SIGMA) or native (manufactured by Calbiochem)) was diluted with solution C to give 5 μL thereof. Here, the recombinant is chymase expressed by yeast, and the native is chymase purified from human skin mast cell. The nucleic acid was serially diluted with solution C at a concentration of 0.0027-2 μM to give 25 μL thereof. The chymase solution (5 μL) and the nucleic acid solution (25 μL) were mixed, and the mixture was incubated at 37° C. for 5 min. […] The whole mixture was centrifuged at 4° C., 14000 rpm for 10 min, and the supernatant (30 μL) was used for the next fluorescence induction reaction.
(§2) The above-mentioned supernatant (30 μL) was added to a 96 well plate (black, manufactured by Costar), a solution (15 μL) of 2% o-phthalaldehyde (manufactured by SIGMA) in methanol and 0.3M NaOH solution (170 μL) were added to each well, and the mixture was incubated at room temperature for 10 min. […] The plate was set on a microplate reader SpectraMax190 (manufactured by Molecular device) and the fluorescence intensity was measured at an excitation wavelength of 355 nm and a fluorescence wavelength of 460 nm.

chymase [3] = molecular target: T1, chymase; test: inhibition; angiotensin I; recombinant 0.065; details: tags: human skin mast cell, Calbiochem
Description: as §1, §2

chymase [4] = molecular target: T1, chymase; test: inhibition; angiotensin I; recombinant 0.370; details: tags: human skin mast cell, Calbiochem
Description: as §1, §2

chymase [5] = molecular target: T1, chymase; test: inhibition; angiotensin I; recombinant 0.043; details: tags: human skin mast cell, Calbiochem; label: 5' biotin
Description: as §1, §2

chymase [6] = molecular target: T1, chymase; test: inhibition; angiotensin I; recombinant 0.036; details: tags: human skin mast cell, Calbiochem
Description: as §1, §2

chymase [7] = molecular target: T1, chymase; test: inhibition; angiotensin I; recombinant 0.158; details: tags: human skin mast cell, Calbiochem
Description: as §1, §2

GGGTTAGAUAGAGTUAAAAACCC (mixed, 2'-F U; 2'-OMe 1-3,7,8,10,13,16,18-20; DNA T4,T5,T14,A17,C21-C23; 5' and 3' idT) [72(5)]
IC50 (chymase [1]): 27 nM | IC50 (chymase [2]): 377 nM

GGGTTAGAUAGAGTUAAAAACCC (mixed, 2'-F U; 2'-OMe 1-3,7,8,10,13,16-20; DNA T4,T5,T14,C21-C23; 5' and 3' idT) [SEQ 72]
IC50 (chymase [3]): 120 nM

B1: 72(6) (mixed)
mixed: GGGTTAGAUAGAGTUAAAAACCC
modifications: 2'-F U; 2'-OMe 1-3,7,8,10,13,16,17,19,20; DNA T4,T5,T14,A18,C21-C23; 5' and 3' idT
IC50 (chymase [1]): 41 nM | IC50 (chymase [4]): 573 nM

GGGTTAGAUAGAGTUAAAAACCC (mixed, 2'-F U; 2'-OMe 1-3,7,10,13,16-20; DNA T4,T5,A8,T14,C21-C23; 5' and 3' idT) [72(8)]
IC50 (chymase [5]): 97 nM

GGGTTAGAUAGAGTUAAAAACCC (mixed, 2'-F U; 2'-OMe 1-3,7,10,13,16-20; DNA T4,T5,A8,T14,C21-C23; 5' and 3' idT) [72(1)]
IC50 (chymase [6]): 103 nM

B2: 72(7) (mixed)
mixed: GGGTTAGAUAGAGTUAAAAACCC
modifications: 2'-F U; 2'-OMe 1-3,7,10,13,16-20; DNA T4,T5,A8,T14,C21-C23; 5' idT; 3' PEG 40 kDa
IC50 (chymase [1]): 55 nM | IC50 (chymase [7]): 312 nM
